B1: FBXO34 (parent)
chain: PRYREDPCKQCKKKYVKGDVSLCR
B2: WDFY1 (parent)
chain: FWNIKQMWDTKTLGLRQHHCRKCG

Variants of: B1
Assay: protein stability index of a GFP-peptide fusion (GPS, HEK-293T) (PSI 1-6); higher = more stable
Settings: c terminus: a fixed tail appended
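Further: lentivirally expressed fusions sorted by FACS into six bins by GFP to DsRed ratio, PSI derived from sequencing read proportions per bin multiplied by bin number.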

Protein stability index, by site and new letter:
P1: M 2.75; Q 2.86; C 2.02; F 2.61; K 3.65; I 2.34; A 3.11; L 1.93; E 3.4; D 2.96; G 2.89; R 2.96; Y 2.45; N 3.42; T 2.75; H 2.85; W 1.78; S 2.6; V 2.22
C8: H 3.63; S 3.82; P 3.7; Y 3.33; A 4.08; K 3.88; N 3.86; E 4.06; M 2.95; Q 3.87; D 4.16; G 4.35; R 3.81; I 3.57; F 3.15; V 3.61; T 3.98; L 3.71; W 3.02
R4: I 2.67; T 2.97; L 2.89; H 2.96; D 3.17; W 2.01; Q 2.79; E 3.3; M 2.61; F 2.69; S 2.78; Y 2.66; K 2.79; C 2.94; A 3.38; V 2.77; G 3.25; N 2.99; P 2.72
Q10: H 2.39; L 2.04; K 2.81; F 1.77; D 2.83; C 2.13; E 2.87; G 3.31; A 2.79; I 2.13
Y3: N 2.84; F 2.93; M 2.56; D 2.82; P 3.07; L 2.73; S 2.8; T 2.65; R 3.24; Q 2.74; V 2.28; E 4; W 2.55; G 3.39; I 2.76; K 2.63; H 2.67; A 3.39; C 2.77
P7: C 2.26; W 3.07; E 2.76; V 2.19; D 2.85; F 2.22; K 2.51; Y 2.44; H 2.23; T 2.18; I 2.38; N 2.94; Q 2.23; G 2.7; L 1.85; M 2.42; R 2.31; A 2.8; S 2.69
D6: K 3.06; T 2.61; Y 2.3; I 2.21; H 2.61; A 2.46; L 2.15; V 2.58; G 2.48; W 1.98; M 2.92; Q 3.71; P 2.22; N 1.92; E 3.14; R 3.19; F 2.35; C 2.61; S 2.5
R2: F 2.66; K 2.52; D 3.03; M 2.49; E 2.97; T 2; H 2.86; V 2.98; N 2.85; A 2.96; Y 2.64; S 3.03; L 2.76; P 2.75; I 2.98; C 2.41; W 3.25; Q 3; G 3.47
E5: V 2.83; R 2.8; W 2.33; C 2.7; T 2.67; P 2.77; Q 2.83; A 2.66; I 2.46; S 2.58; F 2.57; Y 2.51; L 2.78; G 2.68; K 3.27; N 2.58; M 2.66; H 2.76; D 2.94
K9: L 2.42; Y 2.6; M 2.45; V 2.82; R 2.53; C 2.35; H 2.29; W 2.26; S 2.51; N 2.46; F 2.14; E 3.33; A 2.53; I 2.16; Q 2.72; T 2.66; P 2.28; G 2.59; D 2.54

Variants of: B2
Assay: as above
Settings: c terminus: a fixed tail appended

Protein stability index of substitutions, site by site:
H18: L 2.31; W 2.06; G 2.39; T 3.16; C 3; Q 1.82; D 2.92
T12: S 2.14; Y 2.72; A 2.29; M 2.6; V 2.33; D 1.91; R 2.73
T10: L 2.23; I 2.31; Y 1.41
M7: T 1.69; N 2.46; I 2.15; H 2.9; W 1.96; Q 2.92; E 2.48; V 1.64; R 2.58; S 2.39; P 1.95
D9: R 2.24; A 1.98; C 1.53; G 1.73; W 1.75; N 1.77; Q 1.5
W8: Q 2.59; R 1.42; H 2.24; P 2.73; M 2.78; G 2.81; S 3.12; T 2.52; I 1.75
G14: V 1.58; T 2.68; L 2.54; F 2.78; A 2.1; H 1.85; M 1.75; K 1.79
K5: L 1.07; E 2.43; M 1.87; V 1.69; T 1.97; I 2.15
Q17: A 1.6; P 2.13; I 1.81; K 1.99; M 1.7; D 1.63; Y 1.98
Q6: M 2.06; S 2.01; I 2.45; Y 1.92; P 1.97; E 2.37
C23: N 2.57; P 2.19; Q 2.3; R 2.09; E 1.93; W 1.75; L 2.81
I4: T 2.14; H 2.56; P 2.55; G 2.19; M 2.35; D 2.56; K 2; S 1.95
C20: I 2.17; V 2.2; Y 2.23; T 2.52; R 2.4; E 2.09
L13: R 2.29; A 2.01; T 1.95; H 2.22; C 2.57; F 2.2; I 2.26
W2: A 2.24; G 1.47; P 2.32; H 1.43; Y 2.74; C 1.14; K 2.29; M 2.32
N3: T 1.23; Y 2.37; H 1.85; S 1.61
F1: K 2.45; L 1.62; M 2.98; A 2.11; P 2.29; I 1.91; N 2.76
R16: K 2.89; I 1.43; Q 1.94; P 1.8; A 1.45; W 1.14; D 2.84
R21: L 1.67; Q 2.28
L15: V 2.35; C 1.75; S 2.95; M 1.79; I 1.75; R 1.93
K22: C 1.7; Y 2.2; S 1.66
G24: Y 2.01; C 2.22
K11: M 1.94; R 1.27; G 2.08; H 1.8; P 2.2; C 1.87; T 2.21; A 2.14; I 1.42; N 2.27; D 2.37
H19: N 2.23; G 1.63; V 2.17; Y 2.5
